Assay results taken from PMC12886386.

Target: His10-pA-Tn5 (His10-tagged protein A-Tn5 transposase fusion) (not stated | Escherichia coli)
Test: SEC; HiLoad 16/600 Superdex 200 pg after Ni-NTA; buffer C: 50 mM Tris-HCl pH 7.5, 800 mM NaCl, 0.2 mM EDTA, 2 mM DTT, 10% (v/v) glycerol; fractions checked by SDS-PAGE and 260 nm/280 nm ratio

Question: With “His10-pA-Tn5 (His10-tagged protein A-Tn5 transposase fusion) (enzyme)” as the substance, how does the stoichiometry N read?
Answer: 2
